Results published in patent publication US20230374144A1 (STAIDSON BEIJING BIOPHARMACEUTICAL, published 2023).
Substitutions are numbered along the chain they refer to. Where two headings read alike, the source gives them in different places. Values belong to the molecule of their own block, whether it stands above or below them.

Assays:
human IL-4Rα on cells [1] = biological target: T1, human IL-4Rα on cells (human, UniProt P24394 26-825); assay: cell-based or functional assay
IL-4R with mouse Fc-tag = biological target: T2, IL-4R with mouse Fc-tag (human, UniProt P24394 26-232); assay: competitive ELISA: antibody dilutions with 0.5 µg/mL IL-4R-mouse Fc on plate-captured biotinylated IL-4, anti-mouse-Fc-HRP
T2 construct: not shown: mouse Fc-tag
Protocol: Competitive ELISA: The second assay was designed to identify the anti-IL-4Rα antibodies that were capable of inhibiting the binding of hIL-4 to hIL-4Rα, as measured by competitive ELISA. Briefly, a 96-well plate was coated with 100 μL, 2.5 μg/mL SA (Streptavidin) solution, and incubated overnight at 4° C., followed by washed with TBST. Biotinylated IL-4 with the final concentration of 2 μg/mL was added into the plate and incubated at 37° C. for 1 hour. Then the plate was washed with TBST. The anti-IL-4Rα antibody samples were first diluted to 10 μg/mL, and 1004, of the sample was added to the first row of wells. 10 μg/mL anti-IL-4Rα antibody samples were then serially diluted at a 1:2 ratio and added to each of the remaining rows of wells. 504 of 0.5 μg/mL IL-4R with mouse Fc-tag was added to each well. After incubating for 1 hour at 37° C., the wells were washed with TBST 6 times. 100 µL of anti-mouse-Fc-HRP (1:10,000) was then added to each well and incubated for 1 hour at 37° C. The wells were washed with TBST 6 times before adding 1004/well of TMB, and incubated for 5-10 minutes at 37° C. 2M H₂SO₄ was used to stop the reaction. The ELISA results (OD450) were read, and the binding curves were generated by GraphPad Prism 5 software (GraphPad Software). Reference antibody Dupilumab (Regeneron, anti-IL-4Rα antibody) and AMG317 (Amgen, anti-IL-4Rα antibody) were used as positive controls, Human IgG4, kappa Isotype Control (Cat #HG4K, Sino Biological Inc.) was used as negative control, abbreviated as Human IgG4 in FIG. 1.

human IL-4Rα on cells [2] = biological target: T1, human IL-4Rα on cells; assay: cell-based or functional assay; remark: listed apart in the source
human IL-4Rα on cells [3] = biological target: T1, human IL-4Rα on cells; assay: cell-based or functional assay; remark: listed apart in the source
human IL-4Rα on cells [4] = biological target: T1, human IL-4Rα on cells; assay: cell-based or functional assay; remark: listed apart in the source
human IL-4Rα on cells [5] = biological target: T1, human IL-4Rα on cells; assay: cell-based or functional assay; remark: listed apart in the source
human IL-4Rα on cells [6] = biological target: T1, human IL-4Rα on cells; assay: cell-based or functional assay; remark: listed apart in the source
human IL-4Rα on cells [7] = biological target: T1, human IL-4Rα on cells; assay: cell-based or functional assay; remark: listed apart in the source
human IL-4Rα on cells [8] = biological target: T1, human IL-4Rα on cells; assay: cell-based or functional assay; remark: listed apart in the source
human IL-4Rα on cells [9] = biological target: T1, human IL-4Rα on cells; assay: cell-based or functional assay; remark: listed apart in the source
[10] = biological target: T3, recombinant human IL-4Rα (extracellular domain, tagged) (human, UniProt P24394 26-232); assay: SPR, Biacore T200; antibody (human IgG4) on the sensor chip, human IL-4Rα at 0.625-12.5 nM
T3 construct: it is written second here only for want of that; also called hIL-4Rα; not shown: His-tag or other conventionally used tag
Protocol: The binding affinity of the anti-IL-4Rα antibodies (reformatted as human IgG4) to human IL-4Rα was characterized using Biacore T200 (GE). The full-length anti-IL-4Rα antibodies were stabilized on sensor chip CMS. The affinities for human IL-4Rα at various concentrations were measured. […] Using the SPR technology, the association and dissociation rates were measured, and binding affinity was determined.

B1: C27-7-33 (antibody, human IgG4, V domains shown)
VH: EVQLLESGGGLVQPGGSLRLSCAASGFTLSSYAMHWVRQAPGKGLEYVSGISPSGVSTYYANSVKGRFTISRDNPKNTLFLQMSSLRAEDTAVYYCVRVKVKYRGGMDVWGQGTTVTVSS
VL: EIVLTQSPGTLSLSPGERATLSCRASQGISSAYLAWYQQKPGQAPRLLIYGTSRRATGIPDRFSGSGSGTDFTLTISRLEPEDFAVYYCQLYGATSVTFGQGTKLEIK
IC50(nM), neutralization of hIL-4 (1.2 ng/ml), HEK-Blue IL-4/IL-13 STAT6-SEAP reporter cells (human IL-4Rα on cells [2]): 0.0541 nM
IC50(nM), neutralization of hIL-13 (4 ng/ml), HEK-Blue IL-4/IL-13 STAT6-SEAP reporter cells (human IL-4Rα on cells [3]): 0.0343 nM
IC50(nM), inhibition of IL-4 (2 ng/mL) dependent TF-1 cell proliferation (human IL-4Rα on cells [4]): 0.0311 nM
IC50(nM), inhibition of IL-13 (10 ng/mL) dependent TF-1 cell proliferation (human IL-4Rα on cells [5]): 0.0902 nM
IC50(nM), inhibition of TARC release in human PBMCs induced by hIL-4 (32 ng/mL) (human IL-4Rα on cells [6]): 0.916 nM
IC50(nM), inhibition of TARC release in human PBMCs induced by hIL-13 (200 ng/mL) (human IL-4Rα on cells [7]): 0.0576 nM
IC50(nM), inhibition of hIL-4 (1 ng/mL) dependent CD23 upregulation on B cells in human PBMCs (human IL-4Rα on cells [8]): 0.0303 nM
IC50(nM), inhibition of hIL-13 (20 ng/mL) dependent CD23 upregulation on B cells in human PBMCs (human IL-4Rα on cells [9]): 0.179 nM
Kd [10]: 1.01 nM
koff [10]: 0.000134 s⁻¹
kon [10]: 134000 M⁻¹ s⁻¹
IC50 (IL-4R with mouse Fc-tag): 0.0582 µg/mL

B2: C27-47-56 (antibody, human IgG4, V domains shown)
VH: B1 VH with S54T, V56T, V101G, K102A
VL: B1 VL with G28S, I29V, T95S
IC50(nM), neutralization of hIL-4 (1.2 ng/ml), HEK-Blue IL-4/IL-13 STAT6-SEAP reporter cells (human IL-4Rα on cells [2]): 0.103 nM
IC50(nM), neutralization of hIL-13 (4 ng/ml), HEK-Blue IL-4/IL-13 STAT6-SEAP reporter cells (human IL-4Rα on cells [3]): 0.0966 nM
IC50(nM), inhibition of IL-4 (2 ng/mL) dependent TF-1 cell proliferation (human IL-4Rα on cells [4]): 0.0509 nM
IC50(nM), inhibition of IL-13 (10 ng/mL) dependent TF-1 cell proliferation (human IL-4Rα on cells [5]): 0.0849 nM
IC50(nM), inhibition of TARC release in human PBMCs induced by hIL-4 (32 ng/mL) (human IL-4Rα on cells [6]): 1.2 nM
IC50(nM), inhibition of TARC release in human PBMCs induced by hIL-13 (200 ng/mL) (human IL-4Rα on cells [7]): 0.0913 nM
IC50(nM), inhibition of hIL-4 (1 ng/mL) dependent CD23 upregulation on B cells in human PBMCs (human IL-4Rα on cells [8]): 0.0814 nM
IC50(nM), inhibition of hIL-13 (20 ng/mL) dependent CD23 upregulation on B cells in human PBMCs (human IL-4Rα on cells [9]): 0.698 nM
Kd [10]: 1.82 nM
koff [10]: 0.000195 s⁻¹
kon [10]: 107000 M⁻¹ s⁻¹
IC50 (IL-4R with mouse Fc-tag): 0.0651 µg/mL

The remaining lines, values ahead:

IC50(nM), neutralization of hIL-13 (4 ng/ml), HEK-Blue IL-4/IL-13 STAT6-SEAP reporter cells (human IL-4Rα on cells [1]): 0.649 nM
IC50 (IL-4R with mouse Fc-tag): 0.0891 µg/mL
Molecule: AMG317 (antibody)

IC50(nM), neutralization of hIL-4 (1.2 ng/ml), HEK-Blue IL-4/IL-13 STAT6-SEAP reporter cells (human IL-4Rα on cells [2]): 0.165 nM
IC50(nM), neutralization of hIL-13 (4 ng/ml), HEK-Blue IL-4/IL-13 STAT6-SEAP reporter cells (human IL-4Rα on cells [3]): 0.136 nM
IC50(nM), inhibition of IL-4 (2 ng/mL) dependent TF-1 cell proliferation (human IL-4Rα on cells [4]): 0.253 nM
IC50(nM), inhibition of IL-13 (10 ng/mL) dependent TF-1 cell proliferation (human IL-4Rα on cells [5]): 0.301 nM
IC50(nM), inhibition of TARC release in human PBMCs induced by hIL-4 (32 ng/mL) (human IL-4Rα on cells [6]): 0.63 nM
IC50(nM), inhibition of TARC release in human PBMCs induced by hIL-13 (200 ng/mL) (human IL-4Rα on cells [7]): 0.0323 nM
IC50(nM), inhibition of hIL-4 (1 ng/mL) dependent CD23 upregulation on B cells in human PBMCs (human IL-4Rα on cells [8]): 0.119 nM
IC50(nM), inhibition of hIL-13 (20 ng/mL) dependent CD23 upregulation on B cells in human PBMCs (human IL-4Rα on cells [9]): 2.8 nM
IC50 (IL-4R with mouse Fc-tag): 0.0838 µg/mL
B3: Dupilumab (antibody, V domains shown)
VH: EVQLVESGGGLEQPGGSLRLSCAGSGFTFRDYAMTWVRQAPGKGLEWVSSISGSGGNTYYADSVKGRFTISRDNSKNTLYLQMNSLRAEDTAVYYCAKDRLSITIRPRYYGLDVWGQGTTVTVSS
VL: DIVMTQSPLSLPVTPGEPASISCRSSQSLLYSIGYNYLDWYLQKSGQSPQLLIYLGSNRASGVPDRFSGSGSGTDFTLKISRVEAEDVGFYYCMQALQTPYTFGQGTKLEIKR
